The results in this text go back to patent US20210079109A1 (Regeneron, published 2021).

In general, EC50 refers to the concentration giving half of the maximal effect. A low value points to greater potency. In general, Kd refers to a measure of binding affinity in units of concentration. By koff is commonly meant the first-order rate constant of dissociation. What is called kon is the second-order rate constant of association.

For test [1], the target named is T1, human CD63 (human, UniProt P08962 2-238).
T1 construct: stably transfected in NIH3T3/hCD63; The cell line is named under assay; also called hCD63
T1 sequence: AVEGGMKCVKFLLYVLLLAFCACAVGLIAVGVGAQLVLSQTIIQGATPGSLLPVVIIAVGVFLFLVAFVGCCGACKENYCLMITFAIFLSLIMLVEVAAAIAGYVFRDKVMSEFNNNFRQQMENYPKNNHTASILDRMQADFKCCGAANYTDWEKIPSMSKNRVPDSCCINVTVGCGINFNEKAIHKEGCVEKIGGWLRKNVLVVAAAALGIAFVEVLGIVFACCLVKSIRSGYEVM
Nature of the test: ECL, NIH3T3/hCD63 cells. On the procedure: (§1) LNCAP cells were determined to have a lower human CD63 copy number than U87MG cells. Non-transfected NIH3T3 cells, which have no detectable expression of human CD63 by fluorescence activated cell sorting (FACS), were included as a negative control.
(§2) Briefly, cell lines were rinsed once in PBS buffer without Ca²⁺/Mg²⁺ and incubated for 10 minutes at 37° C. with Enzyme Free Cell Dissociation Solution (Millipore, Cat #S-004-C) to detach the cells. Cells were then washed once with PBS with Ca²⁺/Mg²⁺ and counted with a Cellometer™ Auto T4 cell counter (Nexcelom Bioscience, LLC). Approximately 2.0×10⁴ NIH3T3/hCD63, LNCAP, U87MG or NIH3T3 cells were seeded separately onto 96-well carbon electrode plates […]) and were then incubated for one hour at 37° C. Nonspecific binding sites were blocked with 2% BSA (w/v) in PBS with Ca²⁺/Mg²⁺ for one hour at room temperature (RT). Solutions containing anti-CD63 antibodies or isotype control antibodies at a range of concentrations (1.7 pM to 100 nM) in 0.5% BSA (w/v) in PBS with Ca²⁺/Mg²⁺, as well as control buffer alone, were then added in duplicate to the plate-bound NIH3T3/hCD63, LNCAP, U87MG or NIH3T3 cells and incubated for one hour at RT. Plates were subsequently washed to remove unbound antibodies using an AquaMax2000 plate washer with a cell washing head (MDS Analytical Technologies). […] Plates were washed and then incubated with Read Buffer (MSD, Cat #R92TD-2) according to the manufacturer's instructions. Luminescent signals were measured using a SECTOR Imager (MSD).

Test [2] addresses T1, human CD63. Nature of the test: ECL, LNCAP cells. On the procedure:
as §1, §2

The target in test [3] is T1, human CD63. Nature of the test: ECL, U87MG cells. On the procedure:
as §1, §2

For test [4], the target named is T2, recombinant human CD63 extracellular loop 2 expressed with a C-terminal human Fc tag (human).
T2 construct: also called hCD63 EC loop 2-hFc; human CD63 EC loop 2-Fc
T2 sequence (chain, as listed by the source limits assumed): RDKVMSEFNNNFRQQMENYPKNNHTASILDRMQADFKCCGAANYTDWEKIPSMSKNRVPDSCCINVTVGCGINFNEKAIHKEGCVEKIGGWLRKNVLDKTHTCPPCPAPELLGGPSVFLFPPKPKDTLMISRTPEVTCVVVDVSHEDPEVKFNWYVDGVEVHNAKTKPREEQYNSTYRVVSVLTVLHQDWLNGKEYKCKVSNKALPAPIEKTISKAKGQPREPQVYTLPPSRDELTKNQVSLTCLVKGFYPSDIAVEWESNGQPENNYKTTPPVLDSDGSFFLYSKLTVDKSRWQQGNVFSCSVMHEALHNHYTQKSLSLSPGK
In words: SPR Biacore, mAb captured, 37C. As to the method:
(§3) Equilibrium dissociation constants (KD) for different CD63 (EC2) loop reagents binding to purified anti-CD63 monoclonal antibodies were determined using a real-time surface plasmon resonance based Biacore T200 biosensor or Biacore 2000 biosensor. All binding studies were performed in 10 mM HEPES, 150 mM NaCl, 3 mM EDTA, and 0.05% v/v Surfactant Tween-20, pH 7.4 (HBS-ET) running buffer at 25° C. and 37° C. The Biacore CMS sensor chip surface was first derivatized by amine coupling with either a rabbit anti-mouse Fc specific polyclonal antibody (GE Healthcare, Cat #BR100838) or an anti-human Fab kit (GE Healthcare, Cat #28958325) to capture anti-CD63 monoclonal antibodies. […] The association rate (Kₐ) and dissociation rate (kd) were determined by fitting the real-time binding sensorgrams to a 1:1 binding model with mass transport limitation using Scrubber 2.0c curve-fitting software. Binding dissociation equilibrium constant (KD) and dissociative half-life (t½) were calculated from the kinetic rates as: […]
(§4) Binding kinetics parameters for human CD63 EC loop 2 protein binding to different anti-CD63 monoclonal antibodies of the invention at 25° C. and 37° C. are shown in Tables 6 through 9.
A general note: SPR reads the build-up and loss of mass on a sensor chip optically.

Test [5] concerns the target T3, recombinant human CD63 extracellular loop 2 expressed with a C-terminal Myc-Myc-hexahistidine (human).
T3 construct: also called hCD63 EC loop 2-MMH; human CD63 EC loop 2-MMH
Nature of the test: SPR Biacore, mAb captured, 37C. As to the method: as §3, §4

Test [6] addresses T2, recombinant human CD63 extracellular …. In words: SPR Biacore, mAb captured, 25C. On the procedure:
as §3, §4

Test [7] addresses T3, recombinant human CD63 extracellular …. In words: SPR Biacore, mAb captured, 25C. As to the method: as §3, §4

T3 sequence (chain, as listed by the source limits assumed): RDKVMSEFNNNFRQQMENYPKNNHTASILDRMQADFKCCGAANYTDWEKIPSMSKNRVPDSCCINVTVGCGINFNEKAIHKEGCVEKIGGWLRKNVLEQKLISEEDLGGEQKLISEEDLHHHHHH

B1: H1M12366N (antibody, V domains shown)
VH: QVQLQESGPGLVKPSETLSLTCTVSGGSISSYYWNWIRQSPEKGLEWIGYIYISGTTNYNPSLKSRVTISVDTFKNQFSLKLNSVTAADTAVYYCARMGLGREAFDIWGQGTMVTVSS
VL: not shown
notes: also called H3M12366N
With B1, the figures for the EC50 in test [1], in test [2] and in test [3] were 0.83 nM, 1.8 nM and 2 nM, respectively. Moreover, the “binding ratio at 3.7 nM vs NIH3T3” value in test [1] came out at 310 fold; in test [2], 7 fold; in test [3] it was 107 fold.

B2: H2M12394N (antibody, V domains shown)
VH: QVQLQESGPGLVKPSETLSLTCTVSGGSISSYYWNWIRQSPGKGLEWIGYTKKRSTNYNPSLRSRVTISEDTSKNQFSLKMSSVTAADTAVYYCAKMGWGSHAFDIWGQGTMVTVSS
VL: not shown
notes: also called H2aM12394N
B2: the EC50 in test [1] amounted to 0.38 nM; in test [2], 0.75 nM; in test [3] it was 1.4 nM. Also, the “binding ratio at 3.7 nM vs NIH3T3” value in test [1] stood at 61 fold; in test [2], 4 fold; in test [3], 50 fold. Further, the “100 nM Ag Bound (RU)” value came out at 67 RU in test [4], 19 RU in test [5], 59 RU in test [6] and 27 RU in test [7]. Further, the Kd in test [4] was 1.54 nM; in test [5], 76.7 nM; in test [6], 1.76 nM; in test [7], 9.36 nM. The koff is 0.000504 s⁻¹ in test [4], 0.00277 s⁻¹ in test [5], 0.000144 s⁻¹ in test [6] and 0.000553 s⁻¹ in test [7]. Also, the kon is 327000 M⁻¹ s⁻¹ in test [4], 36200 M⁻¹ s⁻¹ in test [5], 81800 M⁻¹ s⁻¹ in test [6] and 59100 M⁻¹ s⁻¹ in test [7]. Also, the t1/2 in test [4] was determined as 23 min; in test [5] it was 4 min; in test [6] it was 80 min; in test [7] it was 21 min.

B3: H1M12388N (antibody, V domains shown)
VH: QVQLEESGGGVVKAGGSLRLSCAASGFTFSDYYINWIRQAPGKGLEWVSYINNGGYTIYYADSVKGRFTMSRDNAKNSVYLQMNGLRAEDTAFYYCVRDPRSYYGFDYWGQGTLVTVSS
VL: DIQMTQSPSSLSASVGDRVTITCRASQSISRFLHWYQQKPGKAPKLLIYGASSLQSGVPSRFSGSGSGTDFTLTISTLQPEDFATYYCQQSYSTPPITFGQGTRLEIK
As for B3, the EC50 in test [1] was found to be 0.52 nM; in test [2], 0.25 nM; in test [3], 0.3 nM. Moreover, the figures for the “binding ratio at 3.7 nM vs NIH3T3” value in test [1], in test [2] and in test [3] were 434 fold, 31 fold and 284 fold, respectively. Also, the “100 nM Ag Bound (RU)” value in test [4] came out at 158 RU; in test [5], 60 RU; in test [6], 131 RU; in test [7], 59 RU. For the same molecule, the Kd was determined as 0.863 nM in test [4], 5.02 nM in test [5], 0.238 nM in test [6] and 0.72 nM in test [7]. Besides, the koff in test [4] turned out to be 0.000887 s⁻¹; in test [5] it was 0.00327 s⁻¹; in test [6] it was 0.000173 s⁻¹; in test [7] it was 0.000587 s⁻¹. Also, the kon was 1.03e+06 M⁻¹ s⁻¹ in test [4], 651000 M⁻¹ s⁻¹ in test [5], 728000 M⁻¹ s⁻¹ in test [6] and 815000 M⁻¹ s⁻¹ in test [7]. The t1/2 in test [4] was determined as 13 min; in test [5], 4 min; in test [6], 67 min; in test [7], 20 min.

B4: H2M12387N (antibody, V domains shown)
VH: QVQLEESGGGVVKAGGSLRLSCAASGFTFSDYYMNWIRQAPGKGLEWVSYINNGGYTIYYADSVKGRFTMSRDNAKNSVYLQMNGLRAEDTAFYYCVRDPRSYYGFDYWGQGTLVIVSS
VL: DIQMTQSPSSLSASVGDRVTITCRASQSISRFLHWYQQKPGKAPKLLIYGASSLQSGVPSRFSGSGSGTDFTLTISSLQPEDFATYYCQQSYSTPPITFGQGTRLEIK
notes: also called H2aM12387N
Regarding B4, in test [1], the EC50 amounted to 0.39 nM and the “binding ratio at 3.7 nM vs NIH3T3” value stood at 228 fold. Further, in test [2], the EC50 amounted to 0.15 nM and the “binding ratio at 3.7 nM vs NIH3T3” value came to 18 fold. In test [4], the “100 nM Ag Bound (RU)” value was found to be 196 RU, the Kd is 0.596 nM, the koff was determined as 0.000657 s⁻¹ and the kon was found to be 1.1e+06 M⁻¹ s⁻¹. In test [4], the t1/2 came to 18 min. In addition, in test [5], the “100 nM Ag Bound (RU)” value came out at 77 RU, the Kd was 5.21 nM, the koff worked out at 0.00354 s⁻¹ and the kon came to 679000 M⁻¹ s⁻¹. In addition, in test [5], the t1/2 turned out to be 3 min. Besides, in test [3], the EC50 is 0.29 nM and the “binding ratio at 3.7 nM vs NIH3T3” value was found to be 172 fold. Also, in test [6], the “100 nM Ag Bound (RU)” value was determined as 164 RU, the Kd turned out to be 0.129 nM, the koff came to 0.00011 s⁻¹ and the kon came out at 854000 M⁻¹ s⁻¹. Moreover, in test [6], the t1/2 amounted to 105 min. For the same molecule, in test [7], the “100 nM Ag Bound (RU)” value stood at 74 RU, the Kd was found to be 0.994 nM, the koff was 0.00054 s⁻¹ and the kon worked out at 543000 M⁻¹ s⁻¹. In addition, the t1/2 in test [7] stood at 21 min.

B5: H1M12386N (antibody, V domains shown)
VH: QVQLEESGGGVVKAGGSLRLSCVASGFTFSDYYINWIRQAPGKGLEWVSYINNGGYTIYYADSVKGRFTMSRDNAKNSVYLEMNGLRAEDTAFYYCVRDPRSYYGFDYWGQGTLVTVSS
VL: DIQMTQSPSSLSASVGDRVTITCRASQSISSYLNWNQQKPGKAPKLLIYVASSLQSGVPSRFSGSGSGTDFTLTISGLQPEDFAPYYCQQSYITPPITFGQGTRLDIK
As to B5, in test [1], the EC50 amounted to 0.52 nM and the “binding ratio at 3.7 nM vs NIH3T3” value turned out to be 220 fold. In test [2], the EC50 was 0.29 nM and the “binding ratio at 3.7 nM vs NIH3T3” value was 16 fold. Moreover, in test [4], the “100 nM Ag Bound (RU)” value is 170 RU, the Kd amounted to 0.685 nM, the koff was 0.000631 s⁻¹ and the on-rate (kon) was 921000 M⁻¹ s⁻¹. Also, the t1/2 in test [4] was 18 min. Besides, in test [5], the “100 nM Ag Bound (RU)” value was 65 RU, the Kd was 3.61 nM, the koff turned out to be 0.00235 s⁻¹ and the kon was found to be 650000 M⁻¹ s⁻¹. Also, the t1/2 in test [5] amounted to 5 min. Moreover, in test [3], the EC50 turned out to be 0.31 nM and the “binding ratio at 3.7 nM vs NIH3T3” value is 129 fold. In test [6], the “100 nM Ag Bound (RU)” value turned out to be 160 RU, the Kd was 0.173 nM, the koff amounted to 0.000113 s⁻¹ and the kon worked out at 654000 M⁻¹ s⁻¹. In addition, the t1/2 in test [6] stood at 102 min. In test [7], the “100 nM Ag Bound (RU)” value was determined as 65 RU, the Kd turned out to be 0.676 nM, the koff is 0.000365 s⁻¹ and the kon was 540000 M⁻¹ s⁻¹. In addition, the t1/2 in test [7] is 32 min.
